Assay results reported in US12365710B2, “HMGB1 protein derivatives for the removal of biofilms” (RESEARCH INSTITUTE AT NATIONWIDE CHILDREN'S HOSPITAL, priority 2018, dated 2025).

B1: B-linker Box: HMGB1 B Box with N- and C-terminal linker (80-179; 80 to 176 in b258), 97 amino acid (protein, UniProt P09429 80-179, looked up, fragment)
chain: PPKGETKKKFKDPNAPKRPPSAFFLFCSEYRPKIKGEHPGLSIGDVAKKLGEMWNNTAADDKQPYEKKAAKLKEKYEKDIAAYRAKGKPDAAKKGVVKAE
B2: mHMGB1: engineered C45S variant of full length rHMGB1 that mimics the reduced form of HMGB1 (protein, UniProt P09429 1-215, looked up, variant C45S)
chain: MGKGDPKKPRGKMSSYAFFVQTCREEHKKKHPDASVNFSEFSKKSSERWKTMSAKEKGKFEDMAKADKARYEREMKTYIPPKGETKKKFKDPNAPKRPPSAFFLFCSEYRPKIKGEHPGLSIGDVAKKLGEMWNNTAADDKQPYEKKAAKLKEKYEKDIAAYRAKGKPDAAKKGVVKAEKSKKKKEEEEDEEDEEDEEEEEDEEDEDEEEDDDDE
modifications: full-length
notes: engineered C45S variant of full length rHMGB1 that mimics the reduced form of HMGB1

Test system: Klebsiella pneumoniae biofilms
Experiment: in vitro disruption of pre-formed biofilms, LIVE/DEAD, CLSM and COMSTAT
Assay type: cell-based
Details: for disruption of established K. pneumoniae biofilms (average thickness, biomass): 200 nM added at 24 h, 16 h incubation; for % reduction in average thickness (AT), mean±SE / % reduction in biomass (BM), mean±SE: 200 nM added to pre-formed biofilms at 24 h, read at 40 h, vs untreated KP biofilms
Procedure: FIGS. 5A-5E: Anti-biofilm effect of HMGB1 variants on high priority bacterial pathogens. Indicated HMGB1 variants or antibodies against DNABII proteins (α-1HFEc 1gG, 1 μM) were added at 24 h to the respective preformed bacterial biofilms, in vitro. After 16 h of Incubation, biofilms were stained with LIVE/DEAD®, then visualized via confocal laser scanning microscopy. Images were analyzed by COMSTAT to calculate average thickness and comparison to control was plotted. (FIG. 5A) Full-length HMGB1 isoforms (200 nM unless otherwise indicated) added to UPEC, B. cenocepacia, NTHI, or ESKAPE pathogens. 800 nM rHMGB1 and 200 nM mHMGB1 were added for S. aureus (ESKAPE). 800 nM rHMGB1, 800 nM mHMGB1, or 3.3 μM of α-1HFEc 1gG were added for E. faecium (ESKAPE) and were incubated for 1 h as opposed to 16 h to avoid potential degradation by E. faecium proteases. (FIG. 5B) Representative images of UPEC biofilms incubated with increasing concentrations of rHMGB1. (FIG. 5C) Individual domains of HMGB1 (200 nM) were tested for anti-biofilm activity as above (dotted line indicates control values). Bars represent the SEM. Statistical significance compared to control was assessed with unpaired t-tests, *P<0.05. […] (FIGS. 5D-5E) HMGB1 and variants disrupt preformed Klebsiella pneumoniae biofilms. rHMGB1, HMGB1 C45S (mHMGB1), bovine HMGB1 (bHMGB1), B box, B Box C106S (mB Box), A Box, and A+B Box were added (200 nM) at 24 h to preformed K. pneumoniae biofilms. After 16 h of incubation, biofilms were stained with LIVE/DEAD®, then visualized via confocal laser scanning microscopy. Images were analyzed by COMSTAT to calculate average thickness and total biomass. Error bars represent the SEM. ***P<0.0001; ns=not significant.
An in vitro biofilm assay was used to test the effect of HMGB1 and its variants on established bacterial biofilms. Applicant expressed, (in E. coli) and purified >95% human recombinant full length HMGB1 (rHMGB1; 1-215), a C45S mutated variant (mHMGB1) and the HMGB1 domains A Box (1-89), A+B Boxes (1-176), B Box (80-179), and B Box C106S (mB Box) (FIG. 3). […] To evaluate the effect of HMGB1 and its variants as well as a commercially available native bovine HMGB1 (used as a control) on established bacterial biofilms, each protein was added (at 200 nM), to pre-formed Klebsiella pneumoniae biofilms after 24 h of growth. After a 16 h incubation (40 h total biofilm growth), the biofilms were stained with LIVE/DEAD® and analyzed using confocal laser scanning microscopy (CLSM) and COMSTAT analysis to calculate the average thickness and total biomass of the biofilms. […] The results of this study lead to a noteworthy observation that a single dose of these non-antimicrobial compounds was able to disrupt recalcitrant biofilms. In addition, the HMGB1 variants have disrupted every bacterial species tested to date, which includes Uropathogenic E. coli, Burkholderia cenocepacia, Nontypeable Haemophilus influenzae (FIG. 6). A single dose at this concentration released of bacteria from their protective shield makes them vulnerable to clearance by antibiotics and the immune system.
Klebsiella pneumoniae (KP), a common cause of nosocomial infections was used for all BBs disruption assays. Human recombinant full length HMGB1 (rHMGB1; 1-215), a C45S mutation variant (mHMGB1) and the HMGB1 domains A Box (1-89), B Box (90-176), AB Boxes (1-176), B-linker Box (80-179), and B-linker Box C106S were expressed (in E. coli) and purified to >95%. To evaluate the effect of rHMGB1 and the various domains on established BBs, each protein species (200 nM) was added to pre-formed BBs at 24 h. At 40 h the BBs were washed, stained with LIVE/DEAD®, visualized via confocal laser scanning microscopy and images were analyzed by COMSTAT to calculate average thickness and biomass.

Row | Molecule | disruption of established K. pneumoniae biofilms (average thickness, biomass) | % reduction in average thickness (AT), mean±SE | % reduction in biomass (BM), mean±SE
1 | rHMGB1: tagless human recombinant full length HMGB1 (1-215) expressed in E. coli | significantly disrupt | 44%±0.33 | 61%±0.01
2 | B1 | retained full anti-biofilm activity | 77%±0.03 | 67%±0.01
3 | B2 | – | 75%±0.04 | 80%±0.01
